The values below are quoted from earlier work in PMC11809415, “Structure of the F-tractin–F-actin complex” (The Journal of Cell Biology, 2025).

“And” between values parts separate entries of the source, which are not always exact repeats. Equal entries are not always repeated.

The term Kd denotes the free concentration of one partner at which half of the binding sites on the other are occupied at equilibrium, for simple one-to-one binding.

For the data set, the target named is F-actin (Oryctolagus cuniculus) (UniProt P68135).

With Lifeact (from UniProt Q08641), the dissociation constant Kd was 14.9 µM and 5.8 µM.
